Source: patent publication US20230414780A1 (VECT HORUS, published 2023)

How the values were obtained:
[1] = target: T1, human TfR ectodomain fused to a mouse IgG1 Fc fragment (human, UniProt P02786 89-760); experiment: SPR, kinetic
T1 construct: extracellular domain; ectodomain fused to the N-terminal end of the Fc, made in-house; not shown: mouse IgG1 Fc fragment
Protocol: (§1) Binding properties of some VHHs were also evaluated using Surface Plasmon Resonance (SPR) experiments. The human, mouse and rhesus monkey TfR (having respectively GeneBank number NM_003234.2, NM_011638, NC_041755.1) ectodomains were fused to the N-terminal end of a mouse IgG1 Fc fragment and the recombinant proteins were produced and purified in-house. Interaction of VHHs with the receptors was tested using a Biacore T200 (GE Healthcare). Receptors were immobilized on an HC 1500M or a CM5 sensor chip (Xantec) either directly or on an anti-mouse IgG previously immobilized. VHHs were injected over flowcell by using the single-cycle kinetic or the multiple-cycle kinetic methods.

[2] = target: T2, mouse TfR ectodomain fused to a mouse IgG1 Fc fragment (mouse, UniProt Q62351 89-763); experiment: SPR, kinetic
T2 construct: extracellular domain; not shown: mouse IgG1 Fc fragment
Protocol: as §1

[3] = target: T1, human TfR ectodomain fused to a mouse …; experiment: SPR, at equilibrium
Protocol: as §1

[4] = target: T3, human transferrin receptor (hTfR) fused to EGFP, on CHO cells (human, UniProt P02786 1-760); experiment: apparent Kd, flow cytometry, CHO cells
T3 construct: whole, on cells; also called human TfR; CHO-hTfR-EGFP; not shown: EGFP from pEGFP-C1 vector, fused to the N-terminal (intracellular) end of hTfR
Protocol: (§2) The binding properties of VHHs with affinity for the TfR from different species (i.e., human (h), mouse (m) and rhesus monkey (rh)) were tested using flow cytometry, and apparent affinities (Kd app) were determined. All experiments were performed in 96 well plates using 2×10⁵ cells/well, at 4° C. with shaking. CHO cell lines expressing the hTfR, mTfR or rhTfR fused to EGFP were saturated with PBS/BSA 2% solution during 30 min to avoid nonspecific binding, followed by incubation with purified VHHs at increasing concentrations for 1 hr. After one wash in PBS/BSA 2%, cells were incubated for 1 hr with an anti-6His tag antibody (mouse), washed twice with PBS/BSA 2%, and incubated for 1 hr with an Alexa647-conjugated anti-mouse secondary antibody. After two last washes in PBS/BSA 2%, cells were fixed by incubation for 15 min with PBS/PFA 2%, washed once with PBS and finally resuspended in PBS. Fluorescence levels were assessed using an Attune NxT flow cytometer (Thermo Fisher Scientific). Experimental data were fitted with GraphPad Prism® software using a nonlinear fit to determine the apparent Kd constants. […] Table 5 hereafter summarizes apparent Kd obtained for the tested VHHs.

[5] = target: T4, mouse transferrin receptor (mTfR) fused to EGFP, on CHO cells (mouse, UniProt Q62351 1-763); experiment: apparent Kd, flow cytometry, CHO cells
T4 construct: whole, on cells; also called mouse TfR; CHO-mTfR-EGFP; not shown: EGFP
Protocol: as §2

[6] = target: T5, rhesus monkey transferrin receptor (rhTfR) fused to EGFP, on CHO cells (rhesus monkey); experiment: apparent Kd, flow cytometry, CHO cells
T5 construct: whole, on cells; also called rhesus monkey TfR
Protocol: as §2

[7] = target: T6, rhesus monkey TfR ectodomain fused to a mouse IgG1 Fc fragment (rhesus monkey, UniProt I0FKY7 89-760); experiment: SPR, kinetic
T6 construct: extracellular domain; not shown: mouse IgG1 Fc fragment
Protocol: as §1

[8] = target: T6, rhesus monkey TfR ectodomain fused to a …; experiment: SPR, at equilibrium
Protocol: as §1

T4 sequence (Q62351 whole entry, the tested form may be a part): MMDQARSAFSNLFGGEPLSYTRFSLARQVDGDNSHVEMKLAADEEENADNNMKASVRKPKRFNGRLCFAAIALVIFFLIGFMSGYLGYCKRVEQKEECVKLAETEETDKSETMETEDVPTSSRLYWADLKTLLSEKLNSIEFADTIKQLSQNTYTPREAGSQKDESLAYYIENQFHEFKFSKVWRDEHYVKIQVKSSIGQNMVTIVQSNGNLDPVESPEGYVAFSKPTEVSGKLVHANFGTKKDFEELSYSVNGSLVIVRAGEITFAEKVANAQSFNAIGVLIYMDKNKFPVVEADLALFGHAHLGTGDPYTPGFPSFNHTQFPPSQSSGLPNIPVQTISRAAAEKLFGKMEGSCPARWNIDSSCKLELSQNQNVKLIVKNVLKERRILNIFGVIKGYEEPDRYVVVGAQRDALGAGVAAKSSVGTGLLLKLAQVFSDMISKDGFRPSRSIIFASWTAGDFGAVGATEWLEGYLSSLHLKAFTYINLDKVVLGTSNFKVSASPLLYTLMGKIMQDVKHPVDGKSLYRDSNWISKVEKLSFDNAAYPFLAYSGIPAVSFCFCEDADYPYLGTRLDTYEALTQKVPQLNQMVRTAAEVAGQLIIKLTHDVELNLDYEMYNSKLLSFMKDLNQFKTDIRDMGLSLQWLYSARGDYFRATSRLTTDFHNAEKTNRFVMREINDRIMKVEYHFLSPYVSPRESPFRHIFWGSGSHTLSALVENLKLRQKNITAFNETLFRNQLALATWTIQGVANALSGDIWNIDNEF
T1 sequence (P02786 89-760): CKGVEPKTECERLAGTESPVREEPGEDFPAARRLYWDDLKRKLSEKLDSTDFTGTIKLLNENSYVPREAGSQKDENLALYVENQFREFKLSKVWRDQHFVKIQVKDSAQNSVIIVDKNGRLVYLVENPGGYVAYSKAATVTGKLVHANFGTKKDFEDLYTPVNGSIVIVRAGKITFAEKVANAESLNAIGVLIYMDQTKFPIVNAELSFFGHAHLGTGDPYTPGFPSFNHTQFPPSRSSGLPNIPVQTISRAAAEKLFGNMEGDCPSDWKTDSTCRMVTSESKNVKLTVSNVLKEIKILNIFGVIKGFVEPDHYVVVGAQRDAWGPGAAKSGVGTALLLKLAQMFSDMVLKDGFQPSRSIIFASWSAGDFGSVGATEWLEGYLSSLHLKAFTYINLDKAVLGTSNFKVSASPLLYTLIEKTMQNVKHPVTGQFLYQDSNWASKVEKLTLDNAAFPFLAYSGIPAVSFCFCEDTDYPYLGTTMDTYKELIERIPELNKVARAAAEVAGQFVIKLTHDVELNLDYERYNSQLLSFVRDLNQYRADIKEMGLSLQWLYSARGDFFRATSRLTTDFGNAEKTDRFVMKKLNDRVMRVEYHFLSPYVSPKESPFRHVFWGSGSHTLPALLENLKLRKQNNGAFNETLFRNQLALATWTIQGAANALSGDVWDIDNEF
T3 sequence (P02786 whole entry, the tested form may be a part): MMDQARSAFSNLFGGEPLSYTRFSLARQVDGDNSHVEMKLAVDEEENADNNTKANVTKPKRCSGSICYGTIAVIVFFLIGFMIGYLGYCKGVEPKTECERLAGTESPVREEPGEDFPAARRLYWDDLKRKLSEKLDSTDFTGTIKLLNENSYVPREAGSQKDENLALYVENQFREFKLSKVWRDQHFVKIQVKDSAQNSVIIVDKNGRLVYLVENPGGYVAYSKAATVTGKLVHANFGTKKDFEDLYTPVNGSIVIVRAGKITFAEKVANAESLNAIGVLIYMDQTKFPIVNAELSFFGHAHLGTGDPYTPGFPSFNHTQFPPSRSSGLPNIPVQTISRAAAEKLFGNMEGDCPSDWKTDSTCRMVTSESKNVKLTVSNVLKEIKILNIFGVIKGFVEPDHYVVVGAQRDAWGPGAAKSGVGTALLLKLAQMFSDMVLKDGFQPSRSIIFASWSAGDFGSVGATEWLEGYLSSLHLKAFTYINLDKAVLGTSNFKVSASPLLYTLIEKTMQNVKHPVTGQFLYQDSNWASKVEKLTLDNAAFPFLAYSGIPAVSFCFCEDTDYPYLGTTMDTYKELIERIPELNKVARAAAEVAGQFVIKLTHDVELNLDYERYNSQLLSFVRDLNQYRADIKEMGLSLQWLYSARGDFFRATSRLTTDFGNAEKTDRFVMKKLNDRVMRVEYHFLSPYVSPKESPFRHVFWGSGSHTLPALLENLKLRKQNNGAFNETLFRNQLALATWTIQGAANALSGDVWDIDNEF
T2 sequence (Q62351 89-763): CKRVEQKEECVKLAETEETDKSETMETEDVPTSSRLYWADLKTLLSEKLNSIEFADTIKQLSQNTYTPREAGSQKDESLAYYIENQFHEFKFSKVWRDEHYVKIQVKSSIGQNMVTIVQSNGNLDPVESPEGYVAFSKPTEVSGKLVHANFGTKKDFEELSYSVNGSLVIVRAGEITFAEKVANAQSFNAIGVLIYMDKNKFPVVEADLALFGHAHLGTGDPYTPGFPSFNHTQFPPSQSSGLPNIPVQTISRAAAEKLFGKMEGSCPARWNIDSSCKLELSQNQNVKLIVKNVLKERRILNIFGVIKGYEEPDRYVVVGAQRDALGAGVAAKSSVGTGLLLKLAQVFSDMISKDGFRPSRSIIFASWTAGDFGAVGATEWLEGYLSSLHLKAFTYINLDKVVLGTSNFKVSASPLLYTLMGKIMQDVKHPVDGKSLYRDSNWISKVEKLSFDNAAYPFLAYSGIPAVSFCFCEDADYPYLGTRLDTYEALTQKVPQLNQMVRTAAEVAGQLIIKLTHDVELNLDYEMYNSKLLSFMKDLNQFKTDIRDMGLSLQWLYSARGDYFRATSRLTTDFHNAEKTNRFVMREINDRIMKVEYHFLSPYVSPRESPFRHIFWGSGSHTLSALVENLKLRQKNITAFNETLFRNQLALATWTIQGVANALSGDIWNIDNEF

| Binder | Kd [1] [nM] | koff [1] [s⁻¹] | kon [1] [M⁻¹ s⁻¹] | Kd [2] [nM] | koff [2] [s⁻¹] | kon [2] [M⁻¹ s⁻¹] | Kd [3] [nM] | Kd [4] [nM] | Kd [5] [nM] | Kd [6] [nM] | Kd [7] [nM] | koff [7] [s⁻¹] | kon [7] [M⁻¹ s⁻¹] | Kd [8] [nM] |
| --- | --- | --- | --- | --- | --- | --- | --- | --- | --- | --- | --- | --- | --- | --- |
| C5^V16h20 (VHH) VHH: EVQLVESGGGVVQPGGSLRLSCAASGTDFSINFIRWYRQAPGKGLEFVAGFTATGNTNYADSVKGRFTISRDNAKNAVYLQMNSLRPEDTAVYYCYILDKWGQGTQVTVSS | 112 | 0.0399 | 360000 | 301 | 0.075 | 251000 | 115 | 23 | 622 | 793 |  |  |  |  |
| C5^V32 (VHH) VHH: EVQLVESGGGVVQPGGSLKLSCVASGTDFSINFIRWYSQAPGKQREFVAGFTATGNTNYADSMKGRLTISRDNTKNAVYLQIDSLKPEDTAVYYCYMLGKWGQGTQVTVSS | 35.8 | 0.0247 | 692000 |  |  |  | 38.6 | 66 | 1740 | 653 | 358 | 0.266 | 745000 | 265 |
| VHH A8 (C5^V8) (VHH) VHH: EVQLVESGGGVVQPGGSLKLSCVASGTDFSINFIRWYRQAPGKQREFVAGFTATGNTNYADSMKGRFTISRDNTKNAVYLQIDSLKPEDTAVYYCYMLAKWGQGTQVTVSS | 94.8 | 0.0558 | 504000 |  |  |  | 84.3 | 23 | 427 | 494 |  |  |  |  |
| C5^V30 (VHH) VHH: EVQLVESGGGVVQPGGSLKLSCVASGTDKSINFIRWYRQAPGKQREFVAGFTATGNTNYADSMKGRFTISRDNTKNAVYLQIDSLKPEDTAVYYCYMLDKWGQGTQVTVSS | 94 | 0.03 | 319000 |  |  |  | 112 | 31 | 696 | 362 | 373 | 0.192 | 515000 | 339 |
| C5^h25 (VHH) VHH: EVQLVESGGGVVQPGGSLRLSCAASGTDFSINFIRWVRQAPGKGLEFVAGFTATGNTNYADSVKGRFTISRDNAKNTLYLQIDSLRPEDTAVYYCYMLDKWGQGTQVTVSS |  |  |  |  |  |  | 1550 | 777 | 755 |  |  |  |  |  |
| VHH A18 (C5^V18) (VHH) VHH: EVQLVESGGGVVQPGGSLKLSCVASGTDFSINFIRWYRQAPGKQREFVAGFTATGNTNYADSMKGRFTISRDNTKNAVYLQIDSLKPEDTAVYYCYMVDKWGQGTQVTVSS | 43.3 | 0.021 | 487000 |  |  |  | 37.8 | 12 | 416 | 481 |  |  |  |  |
| B8^V1 (VHH) VHH: EVQLVESGGGVVQPGGSLRLSCAADGEIFSINFMRWYRQAPGKQREWVAGFTRDGSTNYPDSAKGRFTISRDNAKNTVYLQIDSLKPEDTAVYYCYMLDTWGQGTQVTVSS | 6.04 | 0.0011 | 183000 | 1960 | 0.0125 | 6510 |  | 192 | 313 | 138 |  |  |  |  |
| B8^V36 (VHH) VHH: EVQLVESGGGVVQPGGSLRLSCAASGEIFSINVMRWYRQAPGKQREWVAGFTRDGSTNYPDSAKGRFTISRDNAKNTVYLQIDSLKPEDTAVYYCYMLDTWGQGTQVTVSS | 33.3 | 0.019 | 571000 |  |  |  | 39.2 | 27 | 891 | 130 |  |  |  | 206 |

The next binders have a lower Kd [4] than those just listed; values first:

| Kd [1] [nM] | koff [1] [s⁻¹] | kon [1] [M⁻¹ s⁻¹] | Kd [2] [nM] | koff [2] [s⁻¹] | kon [2] [M⁻¹ s⁻¹] | Kd [3] [nM] | Kd [4] [nM] | Kd [5] [nM] | Kd [6] [nM] | Kd [7] [nM] | koff [7] [s⁻¹] | kon [7] [M⁻¹ s⁻¹] | Kd [8] [nM] | Binder |
| --- | --- | --- | --- | --- | --- | --- | --- | --- | --- | --- | --- | --- | --- | --- |
| 47.5 | 0.0182 | 383000 |  |  |  | 64.8 | 11 | 445 | 256 | 234 | 0.123 | 524000 | 242 | C5^V31 (VHH) VHH: EVQLVESGGGVVQPGGSLKLSCVASGTDRSINFIRWYRQAPGKQREFVAGFTATGNTNYADSMKGRFTISRDNTKNAVYLQIDSLKPEDTAVYYCYMLDKWGQGTQVTVSS |
| 44 | 0.0169 | 682000 |  |  |  | 21.8 | 9 | 1670 | 72 | 202 | 0.0942 | 1.16e+06 | 100 | B8^V29 (VHH) VHH: EVQLVESGGGVVQPGGSLRLSCAASGEIFSINFMRWYRQAPGKQREWVAGFTRDGSTNYPDSAKGRFTISRDNAKNTVYLQIDSLKPEDTAVYYCYMADTWGQGTQVTVSS |
| 7.29 | 0.00722 | 1.01e+06 |  |  |  | 3.22 | 6.8 | 760 | 16 | 53.8 | 0.0206 | 455000 | 36.8 | B8^V27 (VHH) VHH: EVQLVESGGGVVQPGGSLRLSCAASGEIFSINFMRWYRQAPGKQREWVAGFTRDGSTVYPDSAKGRFTISRDNAKNTVYLQIDSLKPEDTAVYYCYMLDTWGQGTQVTVSS |
| 12.8 | 0.0133 | 1.03e+06 |  |  |  | 76.3 | 6.2 | 3.6 | 307 | 135 | 0.0438 | 325000 | 222 | B8^V16 (VHH) VHH: EVQLVESGGGVVQPGGSLRLSCAASGEIFSINFMRWYRQAPGKQREQVAGFTRDGSTNYPDSAKGRFTISRDNAKNTVYLQIDSLKPEDTAVYYCYMLDTWGQGTQVTVSS |
| 8.96 | 0.00906 | 1.5e+06 |  |  |  |  | 4.9 | 602 | 755 |  |  |  |  | C5^h22 (VHH) VHH: EVQLVESGGGVVQPGGSLRLSCAASGTDFSINFIRWYRQAPGKGREFVAGFTATGNTNYADSVKGRFTISRDNAKNTLYLQMNSLRPEDTAVYYCYMLDKWGQGTQVTVSS |
| 14.5 | 0.00577 | 459000 |  |  |  |  | 4.7 | 131 | 425 |  |  |  |  | VHH A16 (C5^V16) (VHH) VHH: EVQLVESGGGVVQPGGSLKLSCVASGTDFSINFIRWYRQAPGKQREFVAGFTATGNTNYADSMKGRFTISRDNTKNAVYLQIDSLKPEDTAVYYCYILDKWGQGTQVTVSS |
| 0.984 | 0.00169 | 1.04e+06 |  |  |  |  | 4.7 | 743 | 6.9 | 12.1 | 0.0119 | 997000 | 25.1 | B8^V12 (VHH) VHH: EVQLVESGGGVVQPGGSLRLSCAASGEIFYINFMRWYRQAPGKQREWVAGFTRDGSTNYPDSAKGRFTISRDNAKNTVYLQIDSLKPEDTAVYYCYMLDTWGQGTQVTVSS |
| 0.0333 | 3.3e-05 | 1.01e+06 | 15.6 | 0.00909 | 581000 |  | 1.9 | 56 | 1.5 |  |  |  |  | VHH D (H3) (VHH) VHH: EVQLVESGGGEVQPGGSLKLSCVASGTDFSINFVRWYRQRPGKQREWVAGFTANGDTNYPDSMKGRFTISRDNAKNTVYLQINSLKSEDTAVYYCYMLDNWGQGTQVTVSS |
